Here are results for four molecules from US20220162293A1 (UNIVERSITY OF BRITISH COLUMBIA, published 2022).

Test [1] has as its target T1, cyclo(CGGTTEQGG) (SEQ ID NO: 2) (cyclic peptide: head to tail cyclization (amide condensation of the linear peptide)).
T1 construct: Coated on ELISA plates
T1 peptide: CGGTTEQGG
As to the kind of experiment: indirect ELISA, peptide coated 0.1 µg/well, neat hybridoma supernatant. The protocol:
(§1) ELISA plates were coated with 0.1 μg/well with peptide cyclo([…]) (SEQ ID NO: 2) or cyclo(CGTTEQG) (SEQ ID NO: 3) or the linear versions thereof at 100 μL/well in carbonate Coating Buffer (pH 9.6) overnight at 4 C. In other assays, cyclo([…]) (SEQ ID NO: 32) or cyclo (CGTTEGG) (SEQ ID NO: 29) were also used to coat the ELISA plates.
(§2) The plates were blocked with 3% skim milk powder in PBS for 1 hour at room temperature. The primary antibody, hybridoma tissue culture supernatant neat at 100 uL/well, was incubated for 1 hour at 37 C with shaking. The secondary antibody, goat anti-mouse IgGy-HRP at a 1:10,000 dilution was added at 100 uL/well in PBS-Tween and incubated for 1 hour at 37 C with shaking. All washing steps were performed for 30 mins with PBS-Tween. TMB Substrate was added at 50 uL/well, developed in the dark and stopped with equal volume 1M HCl. The development time was 1-2 min and the plate was read at 450 nm.
Background: ELISA stands for enzyme-linked immunosorbent assay.

The next test deals with T2, BSA (bovine, UniProt P02769 25-607).
T2 construct: Carrier protein used as negative screening antigen; also called bovine serum albumin
As to the kind of experiment: screen of hybridoma supernatants.

In another test the target is T3, Linear … (SEQ ID NO: 2).
T3 sequence (peptide): CGGTTEQGG
As to the kind of experiment: indirect ELISA, peptide coated 0.1 µg/well, neat hybridoma supernatant.

Test [2] deals with T4, Linear CGGTTEQGG (SEQ ID NO: 2).
T4 construct: Coated on ELISA plates; also called linear peptide
T4 peptide: CGGTTEQGG
The test is described as above. The protocol:
as §1, §2

Test [3] deals with T5, TDP-43 in human spinal cord homogenates of sporadic ALS patients (human, UniProt Q13148 1-414, limits assumed).
T5 construct: Tissue homogenate dotted on PVDF; also called sALS samples; pathogenic TDP43 in spinal cord homogenates from ALS patients
The test is described as follows: dot blot of spinal cord homogenates on PVDF.

Residue numbers refer to the chain shown, from its start.

T2 sequence (P02769 25-607 limits assumed): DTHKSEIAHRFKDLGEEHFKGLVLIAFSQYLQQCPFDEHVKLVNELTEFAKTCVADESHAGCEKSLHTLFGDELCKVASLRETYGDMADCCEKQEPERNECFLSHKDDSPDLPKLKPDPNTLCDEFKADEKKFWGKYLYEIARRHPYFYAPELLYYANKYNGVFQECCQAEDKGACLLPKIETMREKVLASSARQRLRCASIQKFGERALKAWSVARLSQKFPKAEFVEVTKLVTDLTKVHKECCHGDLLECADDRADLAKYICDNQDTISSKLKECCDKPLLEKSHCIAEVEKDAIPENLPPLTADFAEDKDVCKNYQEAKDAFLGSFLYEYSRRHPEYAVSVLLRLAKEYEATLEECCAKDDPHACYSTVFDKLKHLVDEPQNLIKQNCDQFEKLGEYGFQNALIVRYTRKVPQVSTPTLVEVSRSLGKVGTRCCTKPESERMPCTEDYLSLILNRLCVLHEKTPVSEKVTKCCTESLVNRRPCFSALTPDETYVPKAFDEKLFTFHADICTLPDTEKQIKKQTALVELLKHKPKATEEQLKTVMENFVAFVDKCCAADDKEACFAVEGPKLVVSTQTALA
T5 sequence (Q13148 whole entry): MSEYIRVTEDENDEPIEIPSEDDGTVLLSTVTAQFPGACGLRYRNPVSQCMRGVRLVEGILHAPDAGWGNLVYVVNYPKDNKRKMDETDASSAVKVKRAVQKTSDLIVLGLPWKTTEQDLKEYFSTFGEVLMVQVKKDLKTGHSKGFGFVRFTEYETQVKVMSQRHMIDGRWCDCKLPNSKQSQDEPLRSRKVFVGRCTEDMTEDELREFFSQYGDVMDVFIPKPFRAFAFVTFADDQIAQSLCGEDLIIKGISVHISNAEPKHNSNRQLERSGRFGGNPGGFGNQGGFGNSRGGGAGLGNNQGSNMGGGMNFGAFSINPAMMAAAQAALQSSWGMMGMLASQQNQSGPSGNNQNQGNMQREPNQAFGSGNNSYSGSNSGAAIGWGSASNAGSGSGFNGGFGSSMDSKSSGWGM

B1: 3H5 (antibody, V domains shown)
VH: QIQLVQSGPELKKPGETVKISCKASGYTFTDYSMHWVKQAPGKGLKWMGWINTETGEPTYADDFKGRFAFSLETSASTAYLQINNLKNEDTATYFCASRRWYPYYFDYWGQGTTLTVSS
VL: QAVVTQESALTTSPGETVTLTCRSSTGAVTTSNYANWVQEKPDHLFTGLIGGPNNRAPGVPARFSGSLIGDKAALTITGAQTEDEAIYFCALWYSNHWVFGGGTKLTVL
notes: IgG1, lambda; also called clone 3H5; antibody 4
In the case of B1, in test [1], the “ELISA signal (read at 450 nm)” value was determined as 2.83 absorbance at 450 nm. Further, in the test with BSA, the binding result is given as “no binding”. Moreover, the ELISA signal (read at 450 nm) (absorbance at 450 nm) with Linear … (SEQ ID NO: 2) was 0.068.

B2: 11F3 (antibody, V domains shown)
VH: QIQLVQSGPELKKPGETVKISCKASGYTFTDYSMHWVKHSPGKGLKWMGWINTETGEPTYADDFKGRFAFSLETSASTAYLQINNLKNEDTATYFCARGYGNWFAYWGQGTLVTVSA
VL: QIVLTQSPAIMSASLGERVTMTCTASSSVSSSYLHWYQQKPGSSPKLWIYSTSNLASGVPARFSGSGSGTSYSLTISSMEAEDAATYYCHQYHRSPLTFGAGTKLELK
notes: IgG1, kappa; also called clone 11F3; antibody 3
Turning to B2, in test [1], the “ELISA signal (read at 450 nm)” value came out at 1.1 absorbance at 450 nm. Further, in the test with BSA, the binding result is listed as “no binding”. Also, in the test with Linear … (SEQ ID NO: 2), the ELISA signal (read at 450 nm) (absorbance at 450 nm) came to 0.071.

B3: 9C5 (antibody, V domains shown)
VH: EVQLVESGGGLVKPGGSLKLSCAASGFTFSDYYMYWVRQTPEKRLEWVATISDGGSYTSYPDSVKGRFTISRDNAKNNLYLQMSSLRSEDTAMYYCARDYYGSSSYTSGFAYWGQGTLVTVSA
VL: DVLMTQTPLSLPVSLGDQASISCRSSQSIVHSNGNTYLEWYLQKPGQSPKLLIYKVSNRFSGVPDRFSGSGSGTDFTLKISRVEAEDLGVYYCFQGSHVPGTFGGGTKLEIK
notes: IgG3, kappa; also called clone 9C5; antibody 6
Consider B3, for which the “ELISA signal (read at 450 nm)” value in test [1] came to 2.29 absorbance at 450 nm. In addition, the binding result in the test with BSA is “no binding”. In the test with Linear … (SEQ ID NO: 2), the ELISA signal (read at 450 nm) (absorbance at 450 nm) worked out at 0.115.

B4: 6C5 (antibody, V domains shown)
VH: EVKLVESGGGLVQPGGSLKLSCATSGFTFSDYYMYWVRQTPEKRLEWVAYISNGGGSTYYPDTVKGRFTISRDNAKNTLYLQMSRLKSEDTAMYYCAREGGTAWFAYWGQGTLVTVSA
VL: B3 VL with G101Y
notes: IgG1, kappa; also called Antibody 6C5
For B4, the figures for the “ELISA signal (read at 450 nm)” value in test [1] and in test [2] were 1.1 absorbance at 450 nm and 0.191 absorbance at 450 nm, respectively. Moreover, the binding result with BSA is reported as “no binding”; in test [3], “binds”.
